# In US20060030527A1 (TRANSTECH PHARMA, published 2006):
# B1: RAGE fusion protein TTP-4000 (Fc fusion)
# chain: AQNITARIGEPLVLKCKGAPKKPPQRLEWKLNTGRTEAWKVLSPQGGGPWDSVARVLPNGSLFLPAVGIQDEGIFRCQAMNRNGKETKSNYRVRVYQIPGKPEIVDSASELTAGVPNKVGTCVSEGSYPAGTLSWHLDGKPLVPNEKGVSVKEQTRRHPETGLFTLQSELMVTPARGGDPRPTFSCSFSPGLPRHRALRTAPIQPRVWEPVPLEEVQLVVEPEGGAVAPPSVFLFPPKPKDTLMISRTPEVTCVVVDVSHEDPEVKFNWYVDGVEVHNAKTKPREEQYNSTYRVVSVLTVLHQDWLNGKEYKCKVSNKALPAPIEKTISKAKGQPREPQVYTLPPSRDELTKNQVSLTCLVKGFYPSDIAVEWESNGQPENNYKTTPPVLDSDGSFFLYSKLTVDKSRWQQGNVFSCSVMHEALHNHYTQKSLSLSPGK
# notes: No immunoglobulin hinge; also called TT4; four domain RAGE fusion protein
# B2: RAGE fusion protein TTP-3000 (Fc fusion)
# chain: AQNITARIGEPLVLKCKGAPKKPPQRLEWKLNTGRTEAWKVLSPQGGGPWDSVARVLPNGSLFLPAVGIQDEGIFRCQAMNRNGKETKSNYRVRVYQIPGKPEIVDSASELTAGPSVFLFPPKPKDTLMISRTPEVTCVVVDVSHEDPEVKFNWYVDGVEVHNAKTKPREEQYNSTYRVVSVLTVLHQDWLNGKEYKCKVSNKALPAPIEKTISKAKGQPREPQVYTLPPSRDELTKNQVSLTCLVKGFYPSDIAVEWESNGQPENNYKTTPPVLDSDGSFFLYSKLTVDKSRWQQGNVFSCSVMHEALHNHYTQKSLSLSPGK
# notes: also called TT3; three domain RAGE fusion protein
# Assays:
# BSA = molecular target: T1, BSA (UniProt P02769 25-607); assay: ELISA on coated Maxisorb plates, absorbance at 405 nm
# T1 construct: also called BSA coating alone; BSA+wash
# T1 sequence (P02769 25-607 limits assumed): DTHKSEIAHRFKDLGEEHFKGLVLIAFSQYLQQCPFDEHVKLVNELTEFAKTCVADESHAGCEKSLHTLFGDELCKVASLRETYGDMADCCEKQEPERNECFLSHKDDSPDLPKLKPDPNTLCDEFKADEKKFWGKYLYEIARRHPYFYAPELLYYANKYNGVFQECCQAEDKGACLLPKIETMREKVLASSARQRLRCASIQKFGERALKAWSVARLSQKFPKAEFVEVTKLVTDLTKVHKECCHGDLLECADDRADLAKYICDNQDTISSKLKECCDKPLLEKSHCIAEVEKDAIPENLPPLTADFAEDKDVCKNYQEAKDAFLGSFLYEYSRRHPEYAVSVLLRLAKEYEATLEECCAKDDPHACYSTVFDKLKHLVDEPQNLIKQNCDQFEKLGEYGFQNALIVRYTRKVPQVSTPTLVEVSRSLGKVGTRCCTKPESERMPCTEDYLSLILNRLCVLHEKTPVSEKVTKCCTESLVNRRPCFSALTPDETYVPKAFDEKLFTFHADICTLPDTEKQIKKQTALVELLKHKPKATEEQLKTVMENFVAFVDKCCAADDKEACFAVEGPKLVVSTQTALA
# Description: (§1) Known RAGE ligands were coated onto the surface of Maxisorb plates at a concentration of 5 micrograms per well. Plates were incubated at 4° C. overnight. Following ligand incubation, plates were aspirated and a blocking buffer of 1% BSA in 50 mM imidizole buffer (pH 7.2) was added to the plates for 1 hour at room temperature. The plates were then aspirated and/or washed with wash buffer (20 mM Imidizole, 150 mM NaCl, 0.05% Tween-20, 5 mM CaCl₂ and 5 mM MgCl₂, pH 7.2). […] The fusion protein was added at increasing dilutions of the initial sample. The RAGE fusion protein was allowed to incubate with the immobilized ligand at 37° C. for one hour after which the plate was washed and assayed for binding of the fusion protein. Binding was detected by the addition of an immunodetection complex containing a monoclonal mouse anti-human IgG1 diluted 1:11,000 to a final assay concentration (FAC) of 21 ng/100 μL, a biotinylated goat anti-mouse IgG diluted 1:500, to a FAC of […], and an avidin-linked alkaline phosphatase. […] Binding of the complex to the immobilized fusion protein was quantified by measuring conversion of PNPP to para-nitrophenol (PNP) which was measured spectrophotometrically at 405 nm.
# [1] = molecular target: T2, Amyloid Beta (1-40) from Biosource (UniProt P05067 672-711); assay: ELISA, ligand coated on Maxisorb plate, fusion protein detected through anti-human IgG1 complex
# T2 construct: domain: Amyloid Beta (1-40); Immobilised on Maxisorb plates; amyloid beta 1-40 is a fragment of it; also called Abeta; A-beta
# T2 sequence (P05067 672-711 limits assumed): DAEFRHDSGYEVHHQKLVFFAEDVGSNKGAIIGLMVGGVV
# Description: as §1
# [2] = molecular target: T2, Amyloid Beta (1-40) from Biosource; assay: ELISA, immobilised ligand, dilutions of a 1.082 mg/mL solution
# Description: as §1
Binder,binding result (BSA),binding result [1],binding result [2]
B1,no binding,binds,–
B2,no binding,–,binds
